Molecular target: CHD7 full length WT (UniProt Q9P2D1)
Assay: single-molecule PIFE/smFRET

Chain of UniProt Q9P2D1 (Q9P2D1 whole entry): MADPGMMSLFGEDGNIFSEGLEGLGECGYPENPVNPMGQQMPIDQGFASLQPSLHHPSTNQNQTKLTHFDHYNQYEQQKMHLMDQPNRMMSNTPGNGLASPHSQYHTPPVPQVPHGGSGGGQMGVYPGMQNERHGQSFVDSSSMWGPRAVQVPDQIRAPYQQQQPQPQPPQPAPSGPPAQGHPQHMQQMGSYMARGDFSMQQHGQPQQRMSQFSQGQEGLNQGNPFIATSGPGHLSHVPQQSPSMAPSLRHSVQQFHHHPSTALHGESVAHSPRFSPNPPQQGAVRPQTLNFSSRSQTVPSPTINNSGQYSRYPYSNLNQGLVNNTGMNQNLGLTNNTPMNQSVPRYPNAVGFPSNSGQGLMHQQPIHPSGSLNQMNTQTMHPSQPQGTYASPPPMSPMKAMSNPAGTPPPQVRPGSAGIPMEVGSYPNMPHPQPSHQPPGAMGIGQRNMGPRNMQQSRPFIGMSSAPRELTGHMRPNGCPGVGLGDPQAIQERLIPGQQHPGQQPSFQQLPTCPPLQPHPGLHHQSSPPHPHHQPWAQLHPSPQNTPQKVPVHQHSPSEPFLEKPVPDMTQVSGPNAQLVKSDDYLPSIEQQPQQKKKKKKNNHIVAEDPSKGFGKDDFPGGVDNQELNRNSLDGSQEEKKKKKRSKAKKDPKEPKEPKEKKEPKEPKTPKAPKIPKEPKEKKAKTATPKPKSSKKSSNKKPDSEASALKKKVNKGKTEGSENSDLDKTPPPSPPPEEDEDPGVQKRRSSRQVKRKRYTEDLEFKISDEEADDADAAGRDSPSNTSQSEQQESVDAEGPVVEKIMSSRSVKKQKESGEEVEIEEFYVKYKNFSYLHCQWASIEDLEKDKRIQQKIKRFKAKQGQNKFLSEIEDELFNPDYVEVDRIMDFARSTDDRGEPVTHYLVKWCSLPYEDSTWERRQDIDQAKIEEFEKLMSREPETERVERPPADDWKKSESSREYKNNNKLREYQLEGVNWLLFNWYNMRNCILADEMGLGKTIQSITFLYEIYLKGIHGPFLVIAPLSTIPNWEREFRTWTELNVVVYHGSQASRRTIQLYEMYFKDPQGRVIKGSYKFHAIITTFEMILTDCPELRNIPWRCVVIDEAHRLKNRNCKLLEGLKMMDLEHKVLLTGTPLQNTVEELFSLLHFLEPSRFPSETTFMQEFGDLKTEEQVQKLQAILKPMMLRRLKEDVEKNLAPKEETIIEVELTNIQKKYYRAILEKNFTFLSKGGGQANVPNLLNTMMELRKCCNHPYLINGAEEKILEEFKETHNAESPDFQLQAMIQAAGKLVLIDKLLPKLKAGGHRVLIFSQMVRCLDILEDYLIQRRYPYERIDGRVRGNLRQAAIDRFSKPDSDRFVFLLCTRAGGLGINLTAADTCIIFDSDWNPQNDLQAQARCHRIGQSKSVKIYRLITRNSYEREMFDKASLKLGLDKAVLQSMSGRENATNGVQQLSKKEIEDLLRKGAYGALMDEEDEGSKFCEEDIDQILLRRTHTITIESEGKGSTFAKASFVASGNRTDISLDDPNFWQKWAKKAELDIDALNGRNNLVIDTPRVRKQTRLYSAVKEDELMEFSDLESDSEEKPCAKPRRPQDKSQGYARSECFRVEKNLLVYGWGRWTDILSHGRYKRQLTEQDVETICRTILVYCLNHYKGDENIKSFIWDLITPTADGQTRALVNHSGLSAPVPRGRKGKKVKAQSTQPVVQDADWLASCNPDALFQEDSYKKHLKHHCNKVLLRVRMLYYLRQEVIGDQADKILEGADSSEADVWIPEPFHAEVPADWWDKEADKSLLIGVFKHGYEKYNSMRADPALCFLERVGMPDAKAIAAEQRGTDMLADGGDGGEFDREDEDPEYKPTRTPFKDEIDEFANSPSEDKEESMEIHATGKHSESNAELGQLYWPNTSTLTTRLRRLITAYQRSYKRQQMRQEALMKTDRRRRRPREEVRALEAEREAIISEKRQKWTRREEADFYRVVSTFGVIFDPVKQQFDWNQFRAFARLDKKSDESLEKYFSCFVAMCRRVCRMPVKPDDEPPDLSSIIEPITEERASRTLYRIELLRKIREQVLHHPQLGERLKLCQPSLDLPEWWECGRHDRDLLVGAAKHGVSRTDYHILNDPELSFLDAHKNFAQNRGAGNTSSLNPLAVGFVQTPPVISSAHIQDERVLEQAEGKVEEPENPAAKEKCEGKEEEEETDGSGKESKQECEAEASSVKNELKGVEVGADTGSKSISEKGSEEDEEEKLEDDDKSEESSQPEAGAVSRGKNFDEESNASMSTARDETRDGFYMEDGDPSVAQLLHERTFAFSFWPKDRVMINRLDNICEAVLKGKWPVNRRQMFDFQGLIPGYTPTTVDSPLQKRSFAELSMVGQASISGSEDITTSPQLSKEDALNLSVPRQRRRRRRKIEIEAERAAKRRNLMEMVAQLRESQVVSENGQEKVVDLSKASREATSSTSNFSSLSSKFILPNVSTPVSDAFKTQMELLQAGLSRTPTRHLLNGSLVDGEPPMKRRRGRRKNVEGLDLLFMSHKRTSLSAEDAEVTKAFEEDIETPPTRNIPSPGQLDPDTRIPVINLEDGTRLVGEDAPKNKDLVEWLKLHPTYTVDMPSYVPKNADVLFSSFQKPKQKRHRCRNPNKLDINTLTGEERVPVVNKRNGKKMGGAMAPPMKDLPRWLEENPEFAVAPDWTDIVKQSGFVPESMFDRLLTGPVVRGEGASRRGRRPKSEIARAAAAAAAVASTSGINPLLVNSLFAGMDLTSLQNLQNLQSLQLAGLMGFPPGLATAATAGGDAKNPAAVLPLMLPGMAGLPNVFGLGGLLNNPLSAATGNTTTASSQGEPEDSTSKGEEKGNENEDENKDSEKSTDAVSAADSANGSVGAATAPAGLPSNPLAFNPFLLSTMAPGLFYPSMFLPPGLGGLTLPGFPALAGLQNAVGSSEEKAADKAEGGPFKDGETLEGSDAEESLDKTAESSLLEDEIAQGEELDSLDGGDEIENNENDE

GCCCTGGAGAATCCCGGTCTGCAGGCCGCTCAATTGGTCGTAGACAGCTCTAGCACCGCTTAAACGCACGTACGCGCTGTCCCCCGCGTTTTAACCGCCAAGGGGATTACTCCCTAGTCTCCAGGCACGTGTCAGATATATACATCCTGTGCATGTATTGAACAGCGACCTTGCCGGTGCCAGTCGGATAGTGTTCCGAGCTCCCACTCTAGAGGATCCCCGGGTACC (double strand) [smFRET 601 nucleosome, 3 bp exit linker, 78 bp entry linker]
binding signal (% of nucleosomes with PIFE): 76.5
